From PMC11006224

Biological target: human FcRn-b2m protein construct containing an AviTag (human) (UniProt P55899)
Assay: BLI

Kd: 0.0143 µM
Substance: rituximab IgG1, full length (from UniProt P01857 1-399) (antibody)
